Reference: patent publication US20180222992A1 (Hoffmann-La Roche, published 2018)

Experiments:
[1] = biological target: A-beta (human); assay: cell-based or functional assay
[2] = biological target: T1, A-beta peptide (1-40) (human); assay: BIAcore; after 14 days, pH 7.4, 37° C., PBS buffer, relative to untreated control
T1 construct: also called Aβ(1-40); Aβ40
Procedure: (§1) After incubation ended, samples were analyzed for relative active concentration (BIAcore), aggregation (SEC) and fragmentation (capillary electrophoresis or SDS-PAGE) and compared with the untreated control.

[3] = biological target: T2, human transferrin receptor (human, UniProt P02786 89-760); assay: as above
T2 construct: also called human TfR; Recombinant His6-tagged human transferrin receptor (R&D systems, cat. no 2474-TR-050)
T2 sequence (P02786 89-760 limits assumed): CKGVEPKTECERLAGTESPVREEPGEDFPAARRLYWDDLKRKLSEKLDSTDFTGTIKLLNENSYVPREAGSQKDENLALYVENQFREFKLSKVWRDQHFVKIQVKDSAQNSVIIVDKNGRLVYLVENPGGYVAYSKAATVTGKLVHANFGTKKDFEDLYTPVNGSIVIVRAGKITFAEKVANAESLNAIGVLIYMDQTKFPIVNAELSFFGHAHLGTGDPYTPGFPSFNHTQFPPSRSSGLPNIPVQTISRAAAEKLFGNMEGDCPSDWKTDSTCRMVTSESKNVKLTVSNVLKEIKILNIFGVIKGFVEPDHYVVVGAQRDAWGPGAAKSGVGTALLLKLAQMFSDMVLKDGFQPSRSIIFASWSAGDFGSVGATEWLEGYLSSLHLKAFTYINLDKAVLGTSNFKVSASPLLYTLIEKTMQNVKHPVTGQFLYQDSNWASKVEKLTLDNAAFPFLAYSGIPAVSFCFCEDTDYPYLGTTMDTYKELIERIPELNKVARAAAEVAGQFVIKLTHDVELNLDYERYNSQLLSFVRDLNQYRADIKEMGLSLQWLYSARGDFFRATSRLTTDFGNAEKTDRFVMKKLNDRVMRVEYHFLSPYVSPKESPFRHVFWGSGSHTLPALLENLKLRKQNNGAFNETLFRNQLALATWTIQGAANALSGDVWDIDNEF
Procedure: as §1

[4] = biological target: T1, A-beta peptide (1-40); assay: BIAcore; after 14 days, pH 6.0, 40° C., His/NaCl buffer, relative to untreated control
Procedure: as §1

[5] = biological target: T2, human transferrin receptor; assay: as above
Procedure: as §1

Row | IL-8 [ng/ml], U937-cell assay [1] [ng/mL] | IP-10 [ng/ml], U937-cell assay [1] [ng/mL] | relative A-beta peptide (1-40) binding by BIAcore [2] [%] | relative human transferrin receptor binding by BIAcore [3] [%] | relative A-beta peptide (1-40) binding by BIAcore [4] [%] | relative human transferrin receptor binding by BIAcore [5] [%] | Binder
1 | 7 | 5.3 | 82 | 78 | 87 | 101 | Antibody 0012 (bispecific antibody, human IgG1, kappa, knob-into-hole; The anti-A-beta light chain occurs twice) chain 1: DIVLTQSPATLSLSPGERATLSCRASQSVSSSYLAWYQQKPGQAPRLLIYGASSRATGVPARFSGSGSGTDFTLTISSLEPEDFATYYCLQIYNMPITFGQGTKVEIKRTVAAPSVFIFPPSDRKLKSGTASVVCLLNNFYPREAKVQWKVDNALQSGNSQESVTEQDSKDSTYSLSSTLTLSKADYEKHKVYACEVTHQGLSSPVTKSFNRGEC chain 2: not shown chain 3: QSMQESGPGLVKPSQTLSLTCTVSGFSLSSYAMSWIRQHPGKGLEWIGYIWSGGSTDYASWAKSRVTISKTSTTVSLKLSSVTAADTAVYYCARRYGTSYPDYGDASGFDPWGQGTLVTVSSASVAAPSVFIFPPSDEQLKSGTASVVCLLNNFYPREAKVQWKVDNALQSGNSQESVTEQDSKDSTYSLSSTLTLSKADYEKHKVYACEVTHQGLSSPVTKSFNRGEC chain 4: not shown
2 | 7 | 4.5 |  |  |  |  | Antibody 0020 (bispecific antibody, human IgG1, kappa) chain 1: DIVLTQSPATLSLSPGERATLSCRASQSVSSSYLAWYQQKPGQAPRLLIYGASSRATGVPARFSGSGSGTDFTLTISSLEPEDFATYYCLQIYNMPITFGQGTKVEIKRTVAAPSVFIFPPSDRKLKSGTASVVCLLNNFYPREAKVQWKVDNALQSGNSQESVTEQDSKDSTYSLSSTLTLSKADYEKHKVYACEVTHQGLSSPVTKSFNRGEC chain 2: not shown chain 3: not shown
3 |  | 5 | 86 | 85 | 96 | 91 | Antibody 0015 (bispecific antibody, knob-into-hole) light 1: DIVLTQSPATLSLSPGERATLSCRASQSVSSSYLAWYQQKPGQAPRLLIYGASSRATGVPARFSGSGSGTDFTLTISSLEPEDFATYYCLQIYNMPITFGQGTKVEIKRTVAAPSVFIFPPSDRKLKSGTASVVCLLNNFYPREAKVQWKVDNALQSGNSQESVTEQDSKDSTYSLSSTLTLSKADYEKHKVYACEVTHQGLSSPVTKSFNRGEC heavy 1: not shown light 2: AIQLTQSPSSLSASVGDRVTITCRASQSISSYLAWYQQKPGKAPKLLIYRASTLASGVPSRFSGSGSGTDFTLTISSLQPEDFATYYCQQNYASSNVDNTFGGGTKVEIKSSASTKGPSVFPLAPSSKSTSGGTAALGCLVKDYFPEPVTVSWNSGALTSGVHTFPAVLQSSGLYSLSSVVTVPSSSLGTQTYICNVNHKPSNTKVDKKVEPKSC heavy 2: not shown
4 | 8 | 5.2 | 101 | 90 | 97 | 93 | Antibody 0024 (bispecific antibody, human IgG1, kappa, knob-into-hole; The anti-A-beta light chain occurs twice) chain 1: not shown chain 2: not shown chain 3: AIQLTQSPSSLSASVGDRVTITCRASQSISSYLAWYQQKPGKAPKLLIYRASTLASGVPSRFSGSGSGTDFTLTISSLQPEDFATYYCQQNYASSNVDNTFGGGTKVEIKSSASTKGPSVFPLAPSSKSTSGGTAALGCLVKDYFPEPVTVSWNSGALTSGVHTFPAVLQSSGLYSLSSVVTVPSSSLGTQTYICNVNHKPSNTKVDKKVEPKSC chain 4: not shown
